Test results reported in US20220242939A1.
Non-standard residues stand in square brackets, D forms with d. No end group written: not given here. Ahx = NCCCCCC(=O)O

How the values were obtained:
[1] = biological target: 4E6, recombinant IgG2c antibody; assay: inhibition ELISA 2nd protocol: antigen in solution varied, antibody 4E6, plate coated with G200-BSA peptide
[2] = biological target: 4E6, recombinant IgG2c antibody; assay: inhibition ELISA: antigen in solution varied, antibody 4E6 at 0.05 µg/ml, plate coated with G200-BSA peptide

4E6, recombinant IgG2c antibody, sequence (VH, as listed by the source limits assumed, chain 1 of 2): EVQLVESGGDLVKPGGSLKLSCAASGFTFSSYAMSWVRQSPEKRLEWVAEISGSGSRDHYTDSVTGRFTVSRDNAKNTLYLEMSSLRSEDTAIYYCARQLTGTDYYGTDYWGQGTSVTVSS
4E6, recombinant IgG2c antibody, sequence (VL, as listed by the source limits assumed, chain 2 of 2): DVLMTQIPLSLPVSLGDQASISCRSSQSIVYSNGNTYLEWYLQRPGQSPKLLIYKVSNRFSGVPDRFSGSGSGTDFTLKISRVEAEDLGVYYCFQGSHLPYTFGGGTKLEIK

IC50 [1]: 11.5 ng/mL
IC50 [2]: 2.9 ng/mL
B1: G200 N-terminal neo-epitope peptide GQPLQE-Acp-C (SEQ ID NO:50) conjugated to BSA (peptide)
peptide: GQPLQE[Ahx]C
modifications: not fully specified (residue 8); printed as GQPLQE-Acp-C; also: C-terminal Cys conjugated to BSA carrier
